Results on two substances are retold here after article PMC11522559.

In experiment [1] the target is Alexa647-labeled microtubules (porcine brain tubulin), antiparallel overlaps (porcine) (UniProt P02550).
The target is the same in experiment [2]. This is another data set of the same source.

Chain of UniProt P02550 (P02550 whole entry): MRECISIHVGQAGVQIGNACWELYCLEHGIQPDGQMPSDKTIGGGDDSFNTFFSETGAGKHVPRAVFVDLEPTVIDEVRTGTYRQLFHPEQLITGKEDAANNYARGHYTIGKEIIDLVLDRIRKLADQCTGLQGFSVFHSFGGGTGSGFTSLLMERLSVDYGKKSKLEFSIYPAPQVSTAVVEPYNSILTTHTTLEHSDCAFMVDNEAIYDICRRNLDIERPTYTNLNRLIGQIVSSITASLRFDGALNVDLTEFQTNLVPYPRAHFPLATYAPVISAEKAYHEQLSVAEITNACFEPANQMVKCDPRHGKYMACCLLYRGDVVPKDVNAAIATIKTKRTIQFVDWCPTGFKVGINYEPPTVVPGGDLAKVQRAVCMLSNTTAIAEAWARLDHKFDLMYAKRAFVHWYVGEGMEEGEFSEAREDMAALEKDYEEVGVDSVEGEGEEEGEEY

For “CDK1-phosphorylated PRC1-Alexa546 (human PRC1 isoform 2) (from UniProt O43663-2 1-576) (natural protein)”, the fold decrease of affinity against unphosphorylated PRC1 in experiment [1] was above 10 fold.

As for “PLK1-phosphorylated PRC1-Alexa546 (human PRC1 isoform 2) (from UniProt O43663-4 1-606) (natural protein)”, the Kd – broadly, the equilibrium constant for the complex coming apart – in experiment [2] amounted to 9.6 nM.
